# Data taken from publication PMC3800053.
# Tests used:
# Test in all cases: EMSA
# [1] = biological target: Ikaros zinc fingers 1-3 (F1-F3) (UniProt Q03267 117-194)
# [2] = biological target: Ikaros zinc fingers 2-4 (F2-F4) (UniProt Q03267 144-223)
# [3] = biological target: Ikaros zinc fingers 1-4 (F1-F4) (UniProt Q03267 117-223)
# Ikaros zinc fingers 1-4 (F1-F4), sequence (Q03267 117-223): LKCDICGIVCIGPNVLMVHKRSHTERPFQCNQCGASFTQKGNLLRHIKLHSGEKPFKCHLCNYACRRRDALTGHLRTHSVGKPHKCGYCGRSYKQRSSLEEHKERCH
# Ikaros zinc fingers 1-3 (F1-F3), sequence (Q03267 117-194): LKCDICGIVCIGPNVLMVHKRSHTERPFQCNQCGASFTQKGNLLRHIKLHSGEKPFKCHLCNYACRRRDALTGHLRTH
# Ikaros zinc fingers 2-4 (F2-F4), sequence (Q03267 144-223): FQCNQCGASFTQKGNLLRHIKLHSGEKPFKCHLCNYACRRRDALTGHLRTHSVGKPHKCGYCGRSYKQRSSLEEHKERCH
binder,measurement,setting,value
Snx25_A (dsDNA) DNA 1: TCAGAAAAAGGGAAAAGGGTCAC DNA 2: GTGACCCTTTTCCCTTTTTCTGA,binding result,[1],no binding
same,binding result,[2],binds
same,binding result,[3],binds
Snx29_Left (dsDNA) DNA 1: TCAGATACTGGGAACACTGTCAC DNA 2: GTGACAGTGTTCCCAGTATCTGA,binding result,[1],binds
same,binding result,[2],binds
same,binding result,[3],binds
Snx29_Right (dsDNA) DNA 1: TCAGACACTGAGAATACTGTCAC DNA 2: GTGACAGTATTCTCAGTGTCTGA,binding result,[1],no binding
same,binding result,[2],no binding
same,binding result,[3],no binding
